Laboratory results published in publication PMC11199421.
pKd: −log10 of the molar value.

Target: Phospholipase A1 (PlaA1) from Serratia marcescens, purified (Serratia marcescens)
Test: SPR; Biacore T200; PlaA1 as ligand (diluted to 20 µg/mL), ∆N27 PlaS as analyte at 0, 0.156, 0.3125, 0.625, 1.25, 2.5 and 5 µM

Q: “N-terminal truncated PlaS (∆N27 PlaS) from Serratia marcescens, purified (domain or fragment)” was tested. Which pKd did it give?
A: Its pKd is 8.07.

Q: What about the koff of the same substance?
A: The koff was 1.26e-05 s⁻¹.

Q: What about the kon of the same substance?
A: Its kon is 1480 M⁻¹ s⁻¹.
